Legend:
[1] = tested on: Bovine gamma globulin (BGG) (Bos taurus); experiment: FP; settings: control protein
[2] = biological target: Bovine serum albumin (BSA) (Bos taurus, UniProt P02769 P02769:25-607); experiment: FP; control protein; settings: label: 5'-fluorescein
Source text: (§1) A fluorescent polarization (FP) assay was used to test the affinity of several oligonucleotide sequences to CEA (Table 4). The initial studies focused on 5 oligonucleotides. Clone 22 and clone 26 contained the sequences with the highest identity to the G-rich motif. The aptamers were synthesized with fluorescein at their 5′ ends and binding was analysis using the Beacon 2000 instrument equipped with a 530 nm emission filter and a 490 nm excitation filter from Pan Vera Corp. (Madison Wis.).
(§2) In the FP assay, fluorescently labelled aptamers are added to the protein. Binding is detected by an increase in fluorescent polarization cause by the decrease in rotation of the protein bound fluorescein (FIG. 4A). The Kd is calculated by determining the CEA concentration at the half maximal mP value as determined from plots of averaged stable mP data as shown in FIGS. 4B and C. […] Unfortunately, others members of the CEA superfamily are not available commercially.

[3] = biological target: T1, Carcinoembryonic antigen (CEA) (Homo sapiens, UniProt P06731 P06731:35-685); experiment: FP; physiological binding buffer; table header prints nM-1, text nM; settings: tags: Calbiochem; label: 5'-fluorescein
Source text: as §1, §2
FIG. 4. Binding of clone26bases 1-50 to CEA monitored by FP in a physiological binding buffer using 4 nM aptamer. (A) Shown is the mP as a function a reading number (sample #). CEA (8 nM) was added after the tenth reading. (B) Shown is the average mP vs aptamer concentration. (C) Shown is the average mP vs CEA concentration within the linear range.

[4] = biological target: T1, Carcinoembryonic antigen (CEA); experiment: FP; physiological binding buffer; settings: tags: Calbiochem; label: 5'-fluorescein
Source text: as §1, §2

[5] = biological target: T1, Carcinoembryonic antigen (CEA); experiment: FP; primer region absent; physiological binding buffer; settings: tags: Calbiochem; label: 5'-fluorescein
Source text: as §1, §2

T1 sequence (P06731 35-685, one chain of several): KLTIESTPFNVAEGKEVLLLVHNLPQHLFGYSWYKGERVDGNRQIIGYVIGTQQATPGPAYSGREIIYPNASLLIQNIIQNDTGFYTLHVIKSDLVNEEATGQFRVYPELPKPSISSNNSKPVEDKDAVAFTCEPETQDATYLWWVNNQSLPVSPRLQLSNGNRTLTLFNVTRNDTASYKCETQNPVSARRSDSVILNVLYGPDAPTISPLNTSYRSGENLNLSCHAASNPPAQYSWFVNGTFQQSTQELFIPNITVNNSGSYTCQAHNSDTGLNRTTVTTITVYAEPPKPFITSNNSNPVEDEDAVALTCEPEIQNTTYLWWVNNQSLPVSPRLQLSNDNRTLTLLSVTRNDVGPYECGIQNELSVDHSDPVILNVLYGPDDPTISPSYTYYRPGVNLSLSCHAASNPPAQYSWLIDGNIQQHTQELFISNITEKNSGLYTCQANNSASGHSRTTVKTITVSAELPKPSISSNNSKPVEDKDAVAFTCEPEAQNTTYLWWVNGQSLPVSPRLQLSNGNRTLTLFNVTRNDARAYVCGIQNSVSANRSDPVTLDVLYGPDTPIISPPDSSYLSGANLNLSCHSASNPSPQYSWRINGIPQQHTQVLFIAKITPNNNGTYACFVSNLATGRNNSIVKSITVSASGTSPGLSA
Bovine serum albumin (BSA), sequence (P02769 25-607, one chain of several): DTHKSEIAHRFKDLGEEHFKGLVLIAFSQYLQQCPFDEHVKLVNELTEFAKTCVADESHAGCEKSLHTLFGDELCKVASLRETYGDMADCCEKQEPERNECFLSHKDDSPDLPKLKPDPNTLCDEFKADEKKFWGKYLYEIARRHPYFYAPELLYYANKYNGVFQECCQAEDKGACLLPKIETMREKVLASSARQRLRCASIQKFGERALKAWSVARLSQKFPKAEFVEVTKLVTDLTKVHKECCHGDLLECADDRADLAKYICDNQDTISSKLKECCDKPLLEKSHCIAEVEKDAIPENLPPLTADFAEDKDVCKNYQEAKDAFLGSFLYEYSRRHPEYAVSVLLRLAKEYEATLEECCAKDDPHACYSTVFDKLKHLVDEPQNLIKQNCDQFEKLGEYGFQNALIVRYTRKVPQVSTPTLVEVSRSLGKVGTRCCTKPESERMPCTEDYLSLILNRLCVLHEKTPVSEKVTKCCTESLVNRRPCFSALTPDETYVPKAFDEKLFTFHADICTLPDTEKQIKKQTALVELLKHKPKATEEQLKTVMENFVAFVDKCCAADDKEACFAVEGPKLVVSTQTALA

Molecule	Kd [1] [nM]	Kd [2] [nM]	other results
ATACCAGCTTATTCAATTGGGGGAGGGGGCGACGCGATACCC [clone22bases1-42]	500	–	–
ATACCAGCTTATTCAATT [5' primer]	400	–	–
ATACCAGCTTATTCAATTGGGGTAGGGGGCGAAGCGATACCCTAATCAGC [clone26bases1-50]	100	–	–
GGGGGAGGGGGCGACGCGATACCC [clone22bases19-42]	250	–	–
ATACCAGCTTATTCAATTGGGGTAGGGGGCGAAGCGATACCCTAATCAGC (ssDNA) [clone26bases1-50]	–	100	Kd [3]: 4 nM
ATACCAGCTTATTCAATTGGGGGAGGGGGCGACGCGATACCC (ssDNA) [clone22bases1-42]	–	200	Kd [4]: 5 nM
ATACCAGCTTATTCAATT (ssDNA) [5' primer]	–	300	Kd [4]: 5 nM
GGGGGAGGGGGCGACGCGATACCC (ssDNA) [clone22bases19-42]	–	400	Kd [5]: 20 nM
